Results published in patent US20250296971A1, “GASTRIC INHIBITORY PEPTIDE RECEPTOR LIGANDS” (priority 2021, published 2025).
*1 amine or outer side, *2 acyl side, *3 side chain or, on linkers, in order; H or OH if unused. Bridges are numbered along the chain shown (N, C = ends). Primed or numbered codes have the meaning given here. [ ]: non-standard residue; d: D form. The star is where a group is joined. Ttds = 1,13-diamino-4,7,10-trioxatridecan-succinamic acid, NCCCOCCOCCOCCCNC(=O)CCC(=O)*; Pro(trans-4-NH2) = O=C([C@@H]1C[C@@H](N[*:3])CN1[*:1])[*:2]; DOTA = O=C(O)CN1CCN(CC(=O)O)CCN(CC(=O)*)CCN(CC(=O)O)CC1; Trp(5-Cl) = N[C@@H](Cc1c[nH]c2ccc(Cl)cc12)C(=O)O; Phe(3,5-Cl2) = N[C@@H](Cc1cc(Cl)cc(Cl)c1)C(=O)O; Pyridine(2,6-diCH2) = c1cc(C[*:1])nc(C[*:2])c1; 2Lut″ = 2,6-lutidylidene linking two thiols; APAc = 4-amino-1-carboxymethylpiperidine; Pro(4S-NH2) = N[C@@H]1CN[C@H](C(=O)O)C1; Phe(2-Cl) = N[C@@H](Cc1ccccc1Cl)C(=O)O; mXylylene = c1cc(C[*:1])cc(C[*:2])c1; Glutaryl = O=C(CCCC(=O)[*:2])[*:1]; AGLU = 1-amino-1-deoxy-D-glucitol; dDap(NTASEROL) = not defined here; Hyp = O=C(O)[C@@H]1C[C@@H](O)CN1; Cysteamide = C(CS[*:3])N[*:1]; GLUSEROL = not defined here; NTASEROL = not defined here; Api = NC1(C(=O)O)CCNCC1; Thp = NC1(C(=O)O)CCOCC1; Aib = CC(C)(N)C(=O)O

Assays:
[1] = biological target: human Gastric Inhibitory Peptide Receptor (GIPR) (human) (UniProt P48546); experiment: FACS competition vs biotinylated GIP-057 on CHO-K1-hGIPR cells; category B: pIC50 7.1-8.0
[2] = biological target: biotinylated extracellular domain of the human GIP receptor (bioGIPR) (human) (UniProt P48546); experiment: SPR single cycle kinetics, bioGIPR captured on chip; category A: pKD >9.0
[3] = biological target: biotinylated extracellular domain of the human GIP receptor (bioGIPR) (human) (UniProt P48546); experiment: SPR single cycle kinetics, bioGIPR captured on chip; category A: t1/2 >15 min
[4] = biological target: human Gastric Inhibitory Peptide Receptor (GIPR) (human) (UniProt P48546); experiment: FACS competition vs biotinylated GIP-057 on CHO-K1-hGIPR cells; category A: pIC50 >8.0
[5] = biological target: human Gastric Inhibitory Peptide Receptor (human) (UniProt P48546); experiment: FACS competition with GIP-057 on CHO-K1-hGIPR cells; pIC50 category A: >8.0
Sequence of human Gastric Inhibitory Peptide Receptor (human) (P48546 22-466 limits assumed): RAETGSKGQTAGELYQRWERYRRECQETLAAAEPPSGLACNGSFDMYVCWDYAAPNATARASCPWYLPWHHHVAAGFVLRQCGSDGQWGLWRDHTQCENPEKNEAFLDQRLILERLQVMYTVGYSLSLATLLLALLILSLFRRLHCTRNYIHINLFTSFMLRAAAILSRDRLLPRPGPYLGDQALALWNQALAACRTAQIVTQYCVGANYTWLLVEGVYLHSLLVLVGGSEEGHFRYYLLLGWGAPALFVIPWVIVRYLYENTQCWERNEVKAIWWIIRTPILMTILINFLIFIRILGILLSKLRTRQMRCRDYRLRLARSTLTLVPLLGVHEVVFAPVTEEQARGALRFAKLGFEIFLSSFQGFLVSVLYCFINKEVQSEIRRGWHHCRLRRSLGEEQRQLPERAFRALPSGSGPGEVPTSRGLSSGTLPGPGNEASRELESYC

Sequence of biotinylated extracellular domain of the human GIP receptor (bioGIPR) (human) (P48546 24-138 limits assumed): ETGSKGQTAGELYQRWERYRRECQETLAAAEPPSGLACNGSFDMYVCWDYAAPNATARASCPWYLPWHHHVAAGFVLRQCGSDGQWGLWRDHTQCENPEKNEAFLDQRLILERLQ
Sequence of human Gastric Inhibitory Peptide Receptor (GIPR) (human) (P48546 22-466 limits assumed): as the sequence (P48546 22-466 limits assumed) above

Row | Molecule | pIC50 [1] [pic50] | pKD [2] [pkd] | t1/2 [3] [min] | pIC50 [4] [pic50] | pIC50 [5] [pic50]
1 | Ac-Asp-Trp-5Clw-Hyp-Glu-leu-[Cys(2Lut)-Apc(DOTA)-Leu-Phe-Cys]-NH2 (peptide) | 7.1 to 8 | – | – | – | –
2 | Ac-D[Phe(2-Cl)][Trp(5-Cl)][Hyp]E[dL]C[Thp]LIC-NH2 (linker 7-11 via Pyridine(2,6-diCH2)) [Ac-Asp-Ocf-5Clw-Hyp-Glu-leu-[Cys(2Lut)-Thp-Leu-Ile-Cys]-NH2] | 7.1 to 8 | – | – | – | –
3 | Ac-D[Phe(3,5-Cl2)][Trp(5-Cl)][Hyp]E[dL]C[Thp]LIC-NH2 (linker 7-11 via Pyridine(2,6-diCH2); SMILES CC[C@H](C)[C@@H]1NC(=O)[C@H](CC(C)C)NC(=O)C2(CCOCC2)NC(=O)[C@@H](NC(=O)[C@@H](CC(C)C)NC(=O)[C@H](CCC(=O)O)NC(=O)[C@@H]2C[C@@H](O)CN2C(=O)[C@H](Cc2c[nH]c3ccc(Cl)cc23)NC(=O)[C@H](Cc2cc(Cl)cc(Cl)c2)NC(=O)[C@H](CC(=O)O)NC(C)=O)CSCc2cccc(n2)CSC[C@@H](C(N)=O)NC1=O) [Ac-Asp-Egn-5Clw-Hyp-Glu-leu-[Cys(2Lut)-Thp-Leu-Ile-Cys]-NH2] | 7.1 to 8 | – | – | – | –
4 | {AGLU-Glutaryl}-DW[Trp(5-Cl)][Pro(trans-4-NH2)]E[dL]C[Api](DOTA)LIC-{APAc-GLUSEROL} (linker 7-11 via Pyridine(2,6-diCH2); reading uncertain) [AGLU-Glutar-Asp-Trp-5Clw-Tap-Glu-leu-[Cys(2Lut)-Apc(DOTA)-Leu-Ile-Cys]-APAc-GLUSEROL] | – | > 9 | > 15 | > 8 | –
5 | {NTASEROL}-DW[Trp(5-Cl)][Pro(trans-4-NH2)]E[dL]C[Api](DOTA)LIC-{APAc-dDap(NTASEROL)-NH2} (linker 7-11 via Pyridine(2,6-diCH2); reading uncertain) [NTASEROL-Asp-Trp-5Clw-Tap-Glu-leu-[Cys(2Lut)-Apc(DOTA)-Leu-Ile-Cys]-APAc-dap(NTASEROL)-NH2] | – | > 9 | > 15 | > 8 | –
6 | {NTASEROL}-DW[Trp(5-Cl)][Pro(trans-4-NH2)]E[dL]C[Api](DOTA)LIC-{APAc-GLUSEROL} (linker 7-11 via Pyridine(2,6-diCH2); reading uncertain) [NTASEROL-Asp-Trp-5Clw-Tap-Glu-leu-[Cys(2Lut)-Apc(DOTA)-Leu-Ile-Cys]-APAc-GLUSEROL] | – | > 9 | > 15 | > 8 | –

Now from value to molecule:

Row | pIC50 [1] [pic50] | pKD [2] [pkd] | t1/2 [3] [min] | pIC50 [4] [pic50] | pIC50 [5] [pic50] | Molecule
7 | 7.1 to 8 | – | – | – | – | Ac-DW[Phe(3,5-Cl2)][Hyp]E[dL]C[Thp]LIC-NH2 (linker 7-11 via 2Lut″) [Ac-Asp-Trp-Egn-Hyp-Glu-leu-[Cys(2Lut)-Thp-Leu-Ile-Cys]-NH2]
8 | 7.1 to 8 | – | – | – | – | Ac-DW[Phe(2,3-Cl2)][Hyp]E[dL]C[Thp]LIC-NH2 (linker 7-11 via 2Lut″) [Ac-Asp-Trp-Egp-Hyp-Glu-leu-[Cys(2Lut)-Thp-Leu-Ile-Cys]-NH2]
9 | – | > 9 | > 15 | – | > 8 | {DOTA-Ttds}-DW[Trp(5-Cl)][Pro(trans-4-NH2)]E[dL]C[Aib]LI[Cysteamide] (linker 7-11 via mXylylene) [DOTA-Ttds-Asp-Trp-5Clw-Tap-Glu-leu-[Cys(3MeBn)-Aib-Leu-Ile-AET]]
10 | – | > 9 | > 15 | – | > 8 | {DOTA-Ttds}-DW[Trp(5-Cl)][Pro(4S-NH2)]E[dL]C[Aib]LI[Cysteamide] (linker 7-11 via mXylylene) [DOTA-Ttds-Asp-Trp-5Clw-4Ap-Glu-leu-[Cys(3MeBn)-Aib-Leu-Ile-AET]]
11 | – | > 9 | > 15 | – | > 8 | {DOTA-Ttds}-DW[Trp(5-Cl)]PE[dL]C[Api](Ac)LI[Cysteamide] (linker (positions not given here) via mXylylene; not fully specified (bridges); printed as DOTA-Ttds-Asp-Trp-5Clw-Pro-Glu-leu-[Cys(3MeBn)-Apc(Ac)-Leu-Ile-AET]) [DOTA-Ttds-Asp-Trp-5Clw-Pro-Glu-leu-[Cys(3MeBn)-Apc(Ac)-Leu-Ile-AET]]
